Test results published in article PMC9758055.

Assays:
[1] = molecular target: SNAPC1;SNAPC2;SNAPC3;SNAPC4 full length;SNAPC5 (Homo sapiens;Homo sapiens;Homo …, UniProt Q16533;Q13487;Q92966;Q5SXM2;O75971 1-368;1-334;1-411;1-1469;1-98, ||||); experiment: EMSA; SNAPc-FL alone; EMSA: 250 mM NaCl, 50 mM HEPES pH 7.9, 20% glycerol, 1 mM TCEP, room temperature 15 min; 20 pM SNAPc, 5 pM DNA, 25 pM TBP/TFIIB (units as printed). Cryo-EM: ass; conditions: protein: recombinant;recombinant;recombinant;recombinant;recombinant; tags: ;;;N-terminal StrepTwin, C-terminal His;; copies: 1;1;1;1;1; blunt
[2] = molecular target: SNAPC1;SNAPC3;SNAPC4 1-516;SNAPC5 (Homo sapiens;Homo sapiens;Homo …, UniProt Q16533;Q92966;Q5SXM2;O75971 1-368;1-411;1-516;1-98, |||); experiment: EMSA; SNAPc-core alone; EMSA: 250 mM NaCl, 50 mM HEPES pH 7.9, 20% glycerol, 1 mM TCEP, room temperature 15 min; 20 pM SNAPc, 5 pM DNA, 25 pM TBP/TFIIB (units as printed). Cryo-EM: ass; conditions: protein: recombinant;recombinant;recombinant;recombinant; tags: ;;;; copies: 1;1;1;1; blunt
[3] = molecular target: SNAPC1;SNAPC2;SNAPC3;SNAPC4 full length;SNAPC5;TBP;TFIIB (Homo sapiens;Homo sapiens;Homo …, UniProt Q16533;Q13487;Q92966;Q5SXM2;O75971;P20226;Q00403 …, ||||||); experiment: EMSA; SNAPc-FL with TBP and TFIIB; EMSA: 250 mM NaCl, 50 mM HEPES pH 7.9, 20% glycerol, 1 mM TCEP, room temperature 15 min; 20 pM SNAPc, 5 pM DNA, 25 pM TBP/TFIIB (units as printed). Cryo-EM: ass; conditions: protein: recombinant;recombinant;recombinant;recombinant;recombinant;recombinant;recombinant; tags: ;;;N-terminal StrepTwin, C-terminal His;;;; copies: 1;1;1;1;1;1;1; blunt
[4] = molecular target: SNAPC1;SNAPC3;SNAPC4 1-516;SNAPC5;TBP;TFIIB (Homo sapiens;Homo sapiens;Homo …, UniProt Q16533;Q92966;Q5SXM2;O75971;P20226;Q00403 1-368;1-411;1-516;1-98;1-339;1-316, |||||); experiment: EMSA; SNAPc-core with TBP and TFIIB; EMSA: 250 mM NaCl, 50 mM HEPES pH 7.9, 20% glycerol, 1 mM TCEP, room temperature 15 min; 20 pM SNAPc, 5 pM DNA, 25 pM TBP/TFIIB (units as printed). Cryo-EM: ass; conditions: protein: recombinant;recombinant;recombinant;recombinant;recombinant;recombinant; tags: ;;;;;; copies: 1;1;1;1;1;1; blunt
[5] = molecular target: SNAPC1;SNAPC3;SNAPC4 1-516;SNAPC5;TBP;TFIIB;TFIIA (Homo sapiens;Homo sapiens;Homo …, UniProt Q16533;Q92966;Q5SXM2;O75971;P20226;Q00403;P52655;P52657 …, ||||||); experiment: cryo-EM; local map of SNAPc-containing upstream complex; GraFix; EMSA: 250 mM NaCl, 50 mM HEPES pH 7.9, 20% glycerol, 1 mM TCEP, room temperature 15 min; 20 pM SNAPc, 5 pM DNA, 25 pM TBP/TFIIB (units as printed). Cryo-EM: ass; conditions: protein: recombinant;recombinant;recombinant;recombinant;recombinant;recombinant;recombinant; tags: ;;;;;;; copies: 1;1;1;1;1;1;1;1; blunt
[6] = molecular target: SNAPC1;SNAPC3;SNAPC4 1-516;SNAPC5;TBP;TFIIB;TFIIA;TFIIF;RNA polymerase II (Homo sapiens;Homo sapiens;Homo …, UniProt Q16533;Q92966;Q5SXM2;O75971;P20226;Q00403;P52655;P52657;P35269;P13984;A0A8D1DPV6 …, ||||||||); experiment: cryo-EM; closed complex; GraFix; TFIIE added in assembly; Zn2+ in SNAPC3; EMSA: 250 mM NaCl, 50 mM HEPES pH 7.9, 20% glycerol, 1 mM TCEP, room temperature 15 min; 20 pM SNAPc, 5 pM DNA, 25 pM TBP/TFIIB (units as printed). Cryo-EM: ass; conditions: tags: ;;;;;;;;; copies: 1;1;1;1;1;1;1;1;1;1;1;1;1;1;1;1;1;1;1;1;1;1; blunt

Measured: binding result

B1: U5 promoter EMSA fragment (75 bp) (dsDNA)
DNA 1: ACCAGTTACTTCTGTAACTCAATTTTCGGGTAACTGCAATTCCTAGTACACTGATGGTGTCTACTAATCCCAAGG
DNA 2: CCTTGGGATTAGTAGACACCATCAGTGTACTAGGAATTGCAGTTACCCGAAAATTGAGTTACAGAAGTAACTGGT
binds: [1] | [2] | [3] | [4]

B2: U1 promoter EMSA fragment (76 bp) (dsDNA)
DNA 1: GAAACGTTGTGCCTCTGCCCCGACACAGCCTCATACGCCTCACTCTTTACACACACGGTCACTTGCCCCGCGCACT
DNA 2: AGTGCGCGGGGCAAGTGACCGTGTGTGTAAAGAGTGAGGCGTATGAGGCTGTGTCGGGGCAGAGGCACAACGTTTC
binds: [1] | [2] | [3] | [4]

B3: engineered U5 promoter cryo-EM scaffold (96 bp) (dsDNA)
DNA 1: AGTAGACACCATCAGTGTACTAGGACCCGAAAATTGAGTTACAGAAGTAACTGGTATACTCTGGTTTCTCTTCAGATCGCATAAAACCTGGCAGGG
DNA 2: CCCTGCCAGGTTTTATGCGATCTGAAGAGAAACCAGAGTATACCAGTTACTTCTGTAACTCAATTTTCGGGTCCTAGTACACTGATGGTGTCTACT
binds: [5] | [6]
